Laboratory results from patent publication US20130122013A1 (Eli Lilly, published 2013).

T1: human ferroportin 1 (human, UniProt Q9NP59 1-571)
T1 sequence: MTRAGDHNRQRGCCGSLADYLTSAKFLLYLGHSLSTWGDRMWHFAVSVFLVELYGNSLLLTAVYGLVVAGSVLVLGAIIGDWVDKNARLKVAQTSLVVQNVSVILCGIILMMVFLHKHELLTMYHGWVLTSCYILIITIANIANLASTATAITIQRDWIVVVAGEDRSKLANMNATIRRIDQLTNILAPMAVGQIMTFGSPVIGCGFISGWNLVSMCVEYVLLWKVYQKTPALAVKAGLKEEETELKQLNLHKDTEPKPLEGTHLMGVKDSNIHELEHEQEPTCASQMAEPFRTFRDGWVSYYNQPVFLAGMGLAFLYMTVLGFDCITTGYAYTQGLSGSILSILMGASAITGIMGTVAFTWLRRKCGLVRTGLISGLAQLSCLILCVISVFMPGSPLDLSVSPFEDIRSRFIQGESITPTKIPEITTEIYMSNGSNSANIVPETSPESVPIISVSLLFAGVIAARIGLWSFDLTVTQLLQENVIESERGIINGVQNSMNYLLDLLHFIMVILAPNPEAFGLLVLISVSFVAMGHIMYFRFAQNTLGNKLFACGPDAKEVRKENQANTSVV

T2: human FPN1 C-terminally fused with GFP (human, UniProt Q9NP59 1-571, GFP reporter fused to the C-terminus ("FPN1 is C-terminally fused with GFP"). It is left out because the patent gives no letters for it.)
T2 construct: Expressed inducibly in T-REx HEK 293 cells; In the SPR assays it was captured from the detergent lysate of the induced cells on an anti-GFP antibody; also called FPN1-GFP; FPN-GFP; not shown: GFP fused to the C-terminus, and any linker between FPN1 and GFP
T2 sequence: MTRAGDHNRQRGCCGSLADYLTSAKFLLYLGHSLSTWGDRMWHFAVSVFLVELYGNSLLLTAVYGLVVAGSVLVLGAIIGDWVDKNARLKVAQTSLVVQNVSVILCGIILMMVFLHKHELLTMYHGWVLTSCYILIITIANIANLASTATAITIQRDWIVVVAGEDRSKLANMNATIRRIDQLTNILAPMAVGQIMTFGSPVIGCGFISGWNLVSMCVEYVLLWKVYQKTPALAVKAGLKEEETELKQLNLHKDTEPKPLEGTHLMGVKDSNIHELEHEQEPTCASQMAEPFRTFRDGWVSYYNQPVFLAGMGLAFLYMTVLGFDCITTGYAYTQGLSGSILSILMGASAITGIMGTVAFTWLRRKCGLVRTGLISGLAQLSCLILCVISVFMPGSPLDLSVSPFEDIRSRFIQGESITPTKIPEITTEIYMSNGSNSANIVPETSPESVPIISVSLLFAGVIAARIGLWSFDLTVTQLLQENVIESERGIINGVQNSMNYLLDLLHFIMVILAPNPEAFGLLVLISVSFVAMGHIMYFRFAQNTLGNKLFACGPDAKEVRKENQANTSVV


Legend:
human ferroportin 1 = target: T1, human ferroportin 1; experiment: cell-based or functional assay
[1] = target: T2, human FPN1 C-terminally fused with GFP; experiment: SPR, Biacore T100, 37 C, 1:1 model; FPN1-GFP captured from cell lysate on rabbit anti-GFP antibody, Fab injected
Procedure: (§1) The affinities of FPN1 binding Fabs and Mabs may be determined on Biacore T100 and using 1:1 binding model in the Biacore T100 evaluation software (BIAcore® AB, Upsala, Sweden). […] FPN1 is C-terminally fused with GFP. Expression of FPN1-GFP is induced by 1-10 ng/mL doxycycline for 1-24 hours. Induced cells are harvested by scraping off from flasks and then washed with 1×PBS. Cell pellets can be stored at −80° C. before use. About five million induced cells are resuspended in 10 mM phosphate buffer with 0.2% Tween-20 and protease inhibitors, e.g., Complete™ Protease Inhibitor Cocktail Tablet (Roche Diagnostics Corp., Indianapolis, Ind.). Three cycles of freeze/thaw/sonication are used to lyse the cells. The lysate is diluted two-fold with Biacore running buffer and centrifuged to remove debris.
(§2) On Biacore T100, rabbit anti-GFP antibody or goat anti-GFP antibody is immobilized onto flow cell 1 to 4 of a CMS chip at 5000-15000 Rus. FPN1-GFP is captured onto flow cell 2, 3, or 4 from the lysate of induced cells. Flow cell 1 is used as reference. Then all flow cells are injected with different concentrations of antibodies to evaluate the binding and kinetics.

[2] = target: T2, human FPN1 C-terminally fused with GFP; experiment: SPR, Biacore T100, 37 C, 1:1 model; FPN1-GFP captured from cell lysate on goat anti-GFP antibody, Fab injected; n = 3
Procedure: as §1, §2

[3] = target: T2, human FPN1 C-terminally fused with GFP; experiment: SPR, Biacore T100, 37 C, 1:1 model; FPN1-GFP captured from cell lysate on goat anti-GFP antibody, Fab injected; n = 4
Procedure: as §1, §2

Kd [1] [nM] | koff [1] [s⁻¹] | kon [1] [M⁻¹ s⁻¹] | Kd [2] [nM] | koff [2] [s⁻¹] | kon [2] [M⁻¹ s⁻¹] | Molecule | further results
 |  |  |  |  |  | Control human IgG4 (antibody) | Percentage inhibition of mature hepcidin induced increase in cellular ferritin, Caco-2 cells, antibody at 2.22E-7 M (human ferroportin 1): 24.2%; Percentage inhibition of mature hepcidin induced increase in cellular ferritin, Caco-2 cells, antibody at 2.47E-8 M (human ferroportin 1): 22.1%; Percentage inhibition of mature hepcidin induced increase in cellular ferritin, Caco-2 cells, antibody at 2.7E-9 M (human ferroportin 1): 22.4%; Percentage inhibition of mature hepcidin induced increase in cellular ferritin, Caco-2 cells, antibody at 3.0E-10 M (human ferroportin 1): 15.5%; Percentage inhibition of mature hepcidin induced increase in cellular ferritin, Caco-2 cells, antibody at 6.67E-7 M (human ferroportin 1): 18.7%; Percentage inhibition of mature hepcidin induced increase in cellular ferritin, Caco-2 cells, antibody at 7.4E-8 M (human ferroportin 1): 21.1%; Percentage inhibition of mature hepcidin induced increase in cellular ferritin, Caco-2 cells, antibody at 8.0E-9 M (human ferroportin 1): 16.1%; Percentage inhibition of mature hepcidin induced increase in cellular ferritin, Caco-2 cells, antibody at 9.0E-10 M (human ferroportin 1): 17.5%
10.4 | 0.002 | 192000 | 6.29 | 0.00206 | 328000 | Fab 3D8 (Fab, V domains shown, Humanized form of mouse Fab 1G9 (VH1-69 and O2 frameworks); also called human 3D8) VH: QVQLVQSGAEVKKPGSSVKVSCKASGYAFTSFLIEWVRQAPGQGLEWMGTSNPRTGGTKYKEKFRGRVTITADKSTSTAYMELSSLRSEDTAVYYCAREFFDYWGQGTTVTVSS VL: DIQMTQSPSSLSASVGDRVTITCRASKSISKYTAWYQQKPGKAPKLLIYAGSKLHSGVPSRFSGSGSGTDFTLTISSLQPEDFATYYCQQHNEYPYTFGGGTKVEIK | 
 |  |  | 1.96 | 0.00079 | 431000 | Fab L2.2-4 (Fab, V domains shown, also called human L2.2-4) VH: QVQLVQSGAEVKKPGSSVKVSCKASGYAFTSFLIEWVRQAPGQGLEWMGTSNPRTGGRKYKEKFRGRVTITADKSTSTAYMELSSLRSEDTAVYYCAREFFDYWGQGTTVTVSS VL: DIQMTQSPSSLSASVGDRVTITCRASKSISKYTAWYQQKPGKAPKLLIYAGSKLRSGVPSRFSGSGSGTDFTLTISSLQPEDFATYYCQQHNEYPYTFGGGTKVEIK | 
 |  |  |  |  |  | Fab 4A10-3 (Fab, V domains shown, also called human 4A10-3) VH: QVQLVQSGAEVKKPGSSVKVSCKASGYAFTSFLIEWVRQAPGQGLEWMGTSNPRTGGRKYKEKFRGRVTITADKSTSTAYMELSSLRSEDTAVYYCAREFFDYWGQGTTVTVSS VL: DIQMTQSPSSLSASVGDRVTITCRASKSISKYTAWYQQKPGKAPKLLIYAGSKLHWGVPSRFSGSGSGTDFTLTISSLQPEDFATYYCQQHNEYPYTFGGGTKVEIK | Kd [3]: 1.76 nM; koff [3]: 0.00148 s⁻¹; kon [3]: 844000 M⁻¹ s⁻¹
 |  |  | 2.4 | 0.00637 | 2.31e+06 | Fab Combi11 (Fab, V domains shown, also called human Combi11) VH: QVQLVQSGAEVKKPGSSVKVSCKASGYAFTSFLIEWVRQAPGQGLEWMGTSNPRTGRTKYKSKFRGRVTITADKSTSTAYMELSSLRSEDTAVYYCAREFFDYWGQGTTVTVSS VL: DIQMTQSPSSLSASVGDRVTITCRASKSISKYTAWYQQKPGKAPKLLIYAGSKRHWGVPSRFSGSGSGTDFTLTISSLQPEDFATYYCQQHNEYPYTFGGGTKVEIK | 
41.5 | 0.00262 | 63200 |  |  |  | Fab 34A9 (Fab, V domains shown, Mouse Fab; also called mouse Fab 34A9) VH: QVQLKQSGAELVRPGTSVKVSCKASGYAFTNFLIEWLKQRPGQGLEWIGTINPETGGTKYNEKFRGKATLTADKSSSTAYMQLNSLTSDDSAVYFCVREFFDYWGQGTSLTVSS VL: ETTVTQSPSYLAASPGETITINCRASKSISKYLAWFQEKPGKTNKLLIYAGSTLHSGIPSRFSGSGSGTDFTLTISSLEPEDFAMYYCQQHNEYPYTFGGGTKLELK | 
